In US20150246949A1, “Desmoglein 2 (DSG2) Binding Proteins and Uses Therefor” (UNIVERSITY OF WASHINGTON THROUGH ITS CENTER FOR …, priority 2012, published 2015):
Changes are numbered by the printed parent chain. Numbers in names are those of the source. Entries after “also recorded” stand apart in the source; their conditions may differ.

T1: Recombinant human DSG2 protein (Leinco Technologies) (human, UniProt Q14126 50-609)
T1 construct: also called soluble DSG2; soluble recombinant DSG2
T1 sequence: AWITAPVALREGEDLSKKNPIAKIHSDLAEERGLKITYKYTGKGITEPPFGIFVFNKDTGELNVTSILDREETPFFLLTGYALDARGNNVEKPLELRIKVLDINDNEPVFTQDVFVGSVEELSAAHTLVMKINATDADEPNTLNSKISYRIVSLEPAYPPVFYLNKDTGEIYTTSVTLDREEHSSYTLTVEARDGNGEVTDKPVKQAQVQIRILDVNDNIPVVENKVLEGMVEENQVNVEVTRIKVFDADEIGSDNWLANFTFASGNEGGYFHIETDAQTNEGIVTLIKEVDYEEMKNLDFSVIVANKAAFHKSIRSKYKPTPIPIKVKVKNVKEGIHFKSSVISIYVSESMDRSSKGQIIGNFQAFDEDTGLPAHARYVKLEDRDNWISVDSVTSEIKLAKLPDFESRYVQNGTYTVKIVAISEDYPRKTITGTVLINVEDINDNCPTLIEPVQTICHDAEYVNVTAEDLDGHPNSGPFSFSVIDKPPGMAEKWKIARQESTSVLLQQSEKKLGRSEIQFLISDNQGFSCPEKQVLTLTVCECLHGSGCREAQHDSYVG

T2: soluble CD46 (UniProt P15529 35-343)
T2 construct: also called sCD46
T2 sequence: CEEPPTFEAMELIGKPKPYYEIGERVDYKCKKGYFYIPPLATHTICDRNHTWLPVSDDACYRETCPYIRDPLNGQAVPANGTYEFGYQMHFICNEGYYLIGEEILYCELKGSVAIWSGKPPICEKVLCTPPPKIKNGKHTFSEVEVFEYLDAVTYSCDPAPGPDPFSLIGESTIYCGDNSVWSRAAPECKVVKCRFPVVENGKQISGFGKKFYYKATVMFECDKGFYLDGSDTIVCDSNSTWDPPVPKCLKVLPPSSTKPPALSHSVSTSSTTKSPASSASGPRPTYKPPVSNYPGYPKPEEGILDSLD

B1: wt Ad3 fiber knob without dimerization domain (ligand)
chain: NKLCSKLGNGLTFDSSNSIALKNNTLWTGPKPEANCIIEYGKQNPDSKLTLILVKNGGIVNGYVTLMGASDYVNTLFKNKNVSINVELYFDATGHILPDSSSLKTDLELKYKQTADFSARGFMPSTTAYPFVLPNAGTHNENYIFGQCYYKASDGALFPLEVTVMLNKRLPDSRTSYVMTFLWSLNAGLAPETTQATLITSPFTFSYIREDD
notes: range 108-319; also called wt Ad3knob/noDD; wt Ad3 knob (noDD); not shown: N-terminal 6-His tag of pQE30 and the Gly/Ser linker encoded by primer P1
B2: Ad3-S6/Kn (ligand)
chain: GVLSLKCVNPLTTASGSLQLKVGSGLTVDTTDGSLEENIKVNTPLTKSNHSINLPIGNGLQIEQNKLCSKLGNGLTFDSSNSIALKNNTLWTGPKPEANCIIEYGKQNPDSKLTLILVKNGGIVNGYVTLMGASDYVNTLFKNKNVSINVELYFDATGHILPDSSSLKTDLELKYKQTADFSARGFMPSTTAYPFVLPNAGTHNENYIFGQCYYKASDGALFPLEVTVMLNKRLPDSRTSYVMTFLWSLNAGLAPETTQATLITSPFTFSYIREDD
notes: also called wild-type Ad3 fibers
B3: Ad3-S5/Kn (ligand)
chain: GSLQLKVGSGLTVDTTDGSLEENIKVNTPLTKSNHSINLPIGNGLQIEQNKLCSKLGNGLTFDSSNSIALKNNTLWTGPKPEANCIIEYGKQNPDSKLTLILVKNGGIVNGYVTLMGASDYVNTLFKNKNVSINVELYFDATGHILPDSSSLKTDLELKYKQTADFSARGFMPSTTAYPFVLPNAGTHNENYIFGQCYYKASDGALFPLEVTVMLNKRLPDSRTSYVMTFLWSLNAGLAPETTQATLITSPFTFSYIREDD
notes: as for B2
B4: Ad3-S4/Kn (ligand)
chain: GSLEENIKVNTPLTKSNHSINLPIGNGLQIEQNKLCSKLGNGLTFDSSNSIALKNNTLWTGPKPEANCIIEYGKQNPDSKLTLILVKNGGIVNGYVTLMGASDYVNTLFKNKNVSINVELYFDATGHILPDSSSLKTDLELKYKQTADFSARGFMPSTTAYPFVLPNAGTHNENYIFGQCYYKASDGALFPLEVTVMLNKRLPDSRTSYVMTFLWSLNAGLAPETTQATLITSPFTFSYIREDD
notes: as for B2
B5: Ad3-S3/Kn (ligand)
chain: HSINLPIGNGLQIEQNKLCSKLGNGLTFDSSNSIALKNNTLWTGPKPEANCIIEYGKQNPDSKLTLILVKNGGIVNGYVTLMGASDYVNTLFKNKNVSINVELYFDATGHILPDSSSLKTDLELKYKQTADFSARGFMPSTTAYPFVLPNAGTHNENYIFGQCYYKASDGALFPLEVTVMLNKRLPDSRTSYVMTFLWSLNAGLAPETTQATLITSPFTFSYIREDD
notes: as for B2
B6: Ad3-S2/Kn (ligand)
chain: KLCSKLGNGLTFDSSNSIALKNNTLWTGPKPEANCIIEYGKQNPDSKLTLILVKNGGIVNGYVTLMGASDYVNTLFKNKNVSINVELYFDATGHILPDSSSLKTDLELKYKQTADFSARGFMPSTTAYPFVLPNAGTHNENYIFGQCYYKASDGALFPLEVTVMLNKRLPDSRTSYVMTFLWSLNAGLAPETTQATLITSPFTFSYIREDD
notes: as for B2
B7: N186D (protein)
chain: MKVSALKEKVSALKEKVSALKEKVSALKEKVSALKEGSGGGSGGGSGGGSNSIALKNNTLWTGPKPEANCIIEYGKQNPDSKLTLILVKNGGIVNGYVTLMGASDYVNTLFKDKNVSINVELYFDATGHILPDSSSLKTDLELKYKQTADFSARGFMPSTTAYPFVLPNAGTHNENYIFGQCYYKASDGALFPLEVTVMLNKRLPDSRTSYVMTFLWSLNAGLAPETTQATLITSPFTFSYIREDD
B8: E299V (protein)
chain: B7 chain with D113N, E226V
B9: JO-2: affinity enhanced version of JO-1; printed Y293D, Kd fits V239D; b41 links JO-2 to K217E/F224S (protein)
chain: B7 chain with D113N, V166D
B10: K217E+F224S (protein)
chain: B7 chain with D113N, K144E, F151S

Experiments:
[1] = target: T1, Recombinant human DSG2 protein (Leinco …); experiment: SPR (BIAcore 3000), DSG2 immobilised on CM4 chip, knob injected
[2] = target: T1, Recombinant human DSG2 protein (Leinco …); experiment: SPR (BIAcore 3000), DSG2 immobilised on the sensor chip, knobs injected at 2.5 to 10 µg/ml, BIAeval
soluble CD46 = target: T2, soluble CD46; experiment: Western blot, soluble CD46 as probe, anti-CD46 mAb
[3] = tested on: polarized colon cancer T84 cells; experiment: Transepithelial electrical resistance (TEER) permeability assay; type: cell-based; conditions: for Effect on TEER: 5 μg dimeric Ad3 fiber knob added 1 hour to apical chamber; for TEER compared to JO-1: dimeric affinity-enhanced mutants, TEER at 4 hours, N=3
Experimental: (§1) FIG. 5. Correlation of reduced DSG2 binding with the ability to open epithelial junctions. A) Transepithelial electrical resistance (TEER) measured on polarized colon cancer T84 cells. Cells were cultured in transwell chambers until the TEER was constant, i.e. tight junctions had formed. A total of 5 μg of dimeric Ad3 fiber knobs in PBS was then added for 1 hour to the apical chamber. TEER was measured at the indicated time points. N=6. For time points 1.5 and 4 hours the difference between JO-1 vs D261N and N186D was significant (p<0.01). The arrows indicate the addition and removal of Ad3 fiber knobs. B) Enhancement of irinotecan therapy. A total of 4×10^6 A549 cells were injected subcutaneously into CB17-SCID/beige mice. Once the tumor reached a volume of ˜100 mm^3 (day 15 after implantation), the mice were injected intravenously with 2 mg/kg JO-1, E299V, N186D, or PBS, followed by an intravenous injection of irinotecan (37.5 mg/kg) one hour later. The treatment was repeated on day 25. N=5. […] The difference between “irinotecan” vs “JO-1+irinotecan” was significant (p<0.01) from day 20 on.
FIG. 9. Analysis of dimeric Ad3 fiber knob mutants with increased affinity to DSG2. A) Competition of Ad3-GFP virus infection on HeLa cells with dimeric affinity-enhanced mutant Y250F and JO-1 (dimeric wt Ad3 fiber knob). The experimental setting is as described for FIG. 3C. left panel: percentage of GFP positive cells. Right panel: mean fluorescence intensity. N=3. The standard deviation was less than 10%. B) Competition of Ad3-GFP virus infection on HeLa cells by Ad3 knob mutants with enhanced DSG2 binding but without dimerization domain. 1.5×10^5 HeLa cells were seeded into 24 well plates. Cells were incubated with the Ad3 knob mutants at the increasing concentrations for one hour at room temperature. 100 pfu/cell of Ad3GFP virus were then added and GFP expression was analyzed 18 hours later. C) TEER on colon cancer T84 cells. The experimental setting was the same as for FIG. 5A. The TEER at 4 hours is shown. N=3.
A total of 5×10^5 T84 cells were seeded in 12 mm transwell inserts (PET membrane, with 0.4 μm pore size (Corning, N.Y.) and cultured for >14 days until transepithelial electrical resistance (TEER) was stable. Culture medium was changed every 2-3 days. The cells were exposed to DSG2 ligands (20 μg/ml) in adhesion medium (DMEM, 1% FBS, 2 mM MgCl2, 20 mM HEPES) for 15 min at room temperature and TEER was measured and calculated as described elsewhere (39).

A549 xenograft tumors = experiment: Enhancement of irinotecan therapy in A549 xenograft tumors; type: in vivo, CB17-SCID/beige mice; conditions: 2 mg/kg i.v. one hour before irinotecan 37.5 mg/kg i.v.; days 15 and 25; N=5
Experimental: as §1
FIG. 10. Combination of affinity-enhanced JO-1 versions with chemotherapy. A) Enhancement of irinotecan (I) therapy. The experimental setting was the same as in FIG. 5B. […] N=5. […] Mammary fat pad tumors were established from primary ovarian cancer ovc316 cells. Treatment was started when tumors reached a volume of 100 mm^3 Mice were injected intravenously with 2 mg/kg JO-1 or with 0.5 mg/kg JO-4, followed by an intravenous injection of PEGylated liposomal doxorubicin (PLD) (1 mg/kg) one hour later. Treatment was repeated weekly. […] A total of 4×10^6 TNBC MDA-MB-231 cells were injected into the mammary fat pad of CB17 SCID-beige mice. JO-4 (2 mg/kg) was intravenously injected 1 hour before the application of cetuximab (C) (10 mg/kg, i.p.) and nab-paclitaxel (nab-P) (5 mg/kg, i.v). Treatment was given weekly. N=10 P<0.01 at day 25 for nab-P+C vs JO-4+nab-P+C.
A549, MDA-MB-231, and ovc316 xenograft tumors were established by injection of the corresponding tumor cells into the mammary fat pad (1:1 with Matrigel) of CB17 mice. TC1-DSG2 tumors were established by subcutaneous injection of TC1-DSG2 cells into DSG2 transgenic mice. JO-0, JO-1, JO-2, or JO-4 were intravenously injected one hour before the application of chemotherapeutic drugs: Irinotecan/Camptosar™ (Pfizer Inc., Groton, Conn.), PEGylated liposomal doxorubicin/Lipodox™ (Sun Pharmaceuticals IN, India), cetuximab/Erbitux™ (ImClone, Somerville, N.J.), nanoparticle albumin conjugated paclitaxel/Abraxane™ (Abraxis Biosciences, Summit N.J.). Tumor volumes were measured three times a week. Each treatment group consisted of a minimum of 5 mice.

Row | Molecule | binding result (soluble CD46) | Enhancement of irinotecan therapy (A549 xenograft tumors) | other results
1 | B1 | – | – | Kd [1]: 10 µM; Kd [2]: 10.1 µM; koff [2]: 0.00572 s⁻¹; kon [2]: 527 M⁻¹ s⁻¹
2 | B2 | no binding | – | –
3 | B3 | no binding | – | –
4 | B4 | no binding | – | –
5 | B5 | no binding | – | –
6 | B6 | no binding | – | –
7 | B7 | – | not significant | Effect on TEER [3]: intermediate effects
8 | B8 | – | not significant | Effect on TEER [3]: intermediate effects
9 | B9 | – | increased irinotecan therapy significantly more than JO-1; also recorded: significant from day 20 on | TEER compared to JO-1 [3]: significantly higher
10 | B10 | – | – | TEER compared to JO-1 [3]: significantly higher
